The source of these data is patent publication US20150284465A1 (Chugai, published 2015).

Substitutions are numbered along the chain they refer to. Like-named read-outs stand apart in the source and are kept apart here.

Experiment [1] concerns the target T1, SR344 (N-terminal 1st to 344th amino acids of soluble human IL-6R) (human, UniProt P08887 20-344, limits assumed).
T1 construct: also called recombinant soluble IL-6 receptor; soluble human IL-6 receptor
T1 sequence (looked up): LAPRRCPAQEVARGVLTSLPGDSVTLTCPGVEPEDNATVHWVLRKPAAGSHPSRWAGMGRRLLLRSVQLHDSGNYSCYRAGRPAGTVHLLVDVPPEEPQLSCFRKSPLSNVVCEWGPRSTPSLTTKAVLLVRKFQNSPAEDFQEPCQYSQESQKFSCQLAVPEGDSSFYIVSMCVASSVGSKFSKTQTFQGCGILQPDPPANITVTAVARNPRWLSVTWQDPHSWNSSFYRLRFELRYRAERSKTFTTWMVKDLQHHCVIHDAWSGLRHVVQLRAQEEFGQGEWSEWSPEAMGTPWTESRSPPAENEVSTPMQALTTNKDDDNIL
As to the kind of experiment: SPR (Biacore T100), antibody captured on Protein A, soluble human IL-6 receptor as analyte. The procedure:
The antigen-antibody reaction kinetics between anti-human IL-6 receptor antibody and soluble human IL-6 receptor was analyzed using Biacore T100 (GE Healthcare Biosciences). The antigen-antibody interaction was measured by immobilizing rec-Protein A (Zymed) (hereinafter “Protein A”) onto a sensor chip, capturing an antibody with the immobilized Protein A, and then reacting the antibody with the antigen as an analyte using a method known to those skilled in the art. The running buffer used was HBS-EP+, and the flow rate was 20 μl/min. Each antibody was prepared so that about 100 RU of the antibody was bound to Protein A/G. Soluble human IL-6 receptor was prepared at 0, 0.065, 0.131, and 0.261 μg/ml using HBS-EP+ and used as an analyte. In the first step of the measurement, the antibody in solution was bound to Protein A/G, and the analyte solution was allowed to interact with the antibody. After three minutes of interaction, the solution was switched to HBS-EP+, and the dissociation phase was monitored for 10 or 15 minutes. After measurement of the dissociation phase, the sensor chip was regenerated by washing with 10 μl of 10 mM glycine-HCl (pH 1.5). The association, dissociation, and regeneration constitute one analysis cycle. Each antibody was measured according to this cycle. The obtained sensorgrams were kinetically analyzed using the Biacore-specific data analysis software, Biacore T100 Evaluation Software (GE Healthcare Biosciences).

Experiment [2] has as its target T2, soluble GPC3 core polypeptide (human, UniProt P51654 25-563).
T2 construct: also called soluble GPC3 core protein; soluble glypican-3 core
The experiment is described as follows: competitive ELISA on plate-immobilized soluble GPC3 core polypeptide; competitor: biotinylated GPC3-H2L2 antibody at 0.3 µg/mL. The procedure: The binding activities of prepared antibodies were determined by competitive ELISA. […] The plates were incubated at 4° C. for 30 minutes or more for blocking. […] The plates were incubated at room temperature for one hour, and then washed five times with washing buffer using SkanWasher 400 (Molecular Devices). 100 μl of goat anti streptavidin alkaline phosphatase (Zymed) 20,000-times diluted with substrate buffer was added to each well. The plates were incubated at room temperature for one hour, and then washed five times with washing buffer using SkanWasher 400. Phosphatase Substrate (Sigma) was prepared at 1 mg/ml using substrate buffer, and added to each well (100 μl). The plates were incubated for one hour.

Experiment [3] addresses T3, soluble human FcRn (complex of FcRn and β2-microglobulin) (human, UniProt P55899 24-290; P16213 21-119).
T3 construct: also called hFcRn; copies: 1 + 1
The experiment is described as follows: SPR (Biacore 3000), antibody captured on Protein L or anti-human kappa chain antibody, human FcRn as analyte, pH 6.0, steady state affinity. The procedure:
(§1) The binding to human FcRn was assessed using Biacore 3000. An antibody was bound to Protein L or rabbit anti-human IgG Kappa chain antibody immobilized onto a sensor chip, human FcRn was added as an analyte for interaction with the antibody, and the affinity (KD) was calculated from the amount of bound human FcRn. Specifically, Protein L or rabbit anti-human IgG Kappa chain antibody was immobilized onto sensor chip CM5 (Biacore) by the amine coupling method using 50 mM Na-phosphate buffer (pH 6.0) containing 150 mM NaCl as the running buffer. Then, an antibody was diluted with a running buffer containing 0.02% Tween20, and injected to be bound to the chip. Human FcRn was then injected and the binding activity of the human FcRn to antibody was assessed.
(§2) The affinity was computed using BlAevaluation Software. The obtained sensorgram was used to calculate the amount of hFcRn bound to the antibody immediately before the end of human FcRn injection. The affinity of the antibody for human FcRn was calculated by fitting with the steady state affinity method.

Experiment [4] deals with T4, human-derived Fcγ receptor IIb (Recombinant Human FcRIIB/C, R&D systems) (human, UniProt P31994 46-217, limits assumed).
T4 construct: Bought recombinant protein, construct not described; also called FcγRIIb
T4 sequence (looked up): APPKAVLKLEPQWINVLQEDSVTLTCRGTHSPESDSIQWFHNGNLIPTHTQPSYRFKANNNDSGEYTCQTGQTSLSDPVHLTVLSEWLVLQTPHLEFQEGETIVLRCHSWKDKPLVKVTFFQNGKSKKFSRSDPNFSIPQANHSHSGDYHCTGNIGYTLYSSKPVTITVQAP
The experiment is described as follows: SPR (Biacore T100), FcγRIIb immobilized on CM5, antibody as analyte at 200 µg/ml, 25 C. The procedure: The FcγRIIb binding was assessed by the procedure described below. […] The amounts of bound antibody were compared. […] FcγRIIb was immobilized onto the sensor chip CM5 (Biacore) by the amine coupling method. The final amount of immobilized FcγRIIb was about 4,300 RU. Then, the running buffer was injected until the baseline was stabilized. The measurement was carried out after the baseline was stabilized. […] The running buffer used was HBS-EP+ (10 mM HEPES, 0.15M NaCl, 3 mM EDTA, 0.05% v/v Surfactant P20), and the flow rate was 20 μl/min. The measurement temperature was 25° C. The concentration of each IgG or modified form thereof was adjusted to 200 μg/ml. 20 μl of an analyte was injected and allowed to interact with the immobilized FcγRIIb. After interaction, the analyte was dissociated from FcγRIIb and the sensor chip was regenerated by injecting 200 μl of the running buffer. […] This series of injection was repeated twice.

In experiment [5] the target is T3, soluble human FcRn (complex of FcRn and …). The experiment is described as follows: SPR (Biacore 3000), antibody captured on Protein L or anti-human kappa chain antibody, human FcRn as analyte, pH 6.0, steady state affinity. On the procedure:
as §1, §2
This is another data set of the same source.

The target of experiment [6] is T5, hFcγRIIIaV-His6 (human-derived Fcγ receptor IIIa, Val) (human, UniProt P08637 17-208, limits assumed).
T5 construct: also called FcγRIIIa (Val); not shown: His6 tag
As to the kind of experiment: SPR (Biacore T100), hFcγRIIIaV-His6 immobilized on CM5, antibody as analyte at 250 µg/ml. The procedure: The FcγRIIIa binding was assessed by the procedure described below. […] The amounts of bound antibody were compared. […] FcγRIIIa was immobilized onto the sensor chip CM5 (Biacore) by the amine coupling method. […] The running buffer used was HBS-EP+, and the flow rate was 5 μl/min. The sample concentration was adjusted to 250 μg/ml using HBS-EP+. The analysis included two steps: two minutes of association phase where 10 μl of an antibody solution was injected and the subsequent four minutes of dissociation phase where the injection was switched with HBS-EP+. After the dissociation phase, the sensor chip was regenerated by injecting 20 μl of 5 mM hydrochloric acid. The association, dissociation, and regeneration constitute one analysis cycle. Various antibody solutions were injected to obtain sensorgrams. […] 1999 August; 29(8):2613-24.

Experiment [7] has as its target T3, soluble human FcRn (complex of FcRn and …). As to the kind of experiment: SPR (Biacore 3000), human FcRn as analyte, pH 6.0.

T3 sequence (P55899 24-290 limits assumed, chain 1 of 2): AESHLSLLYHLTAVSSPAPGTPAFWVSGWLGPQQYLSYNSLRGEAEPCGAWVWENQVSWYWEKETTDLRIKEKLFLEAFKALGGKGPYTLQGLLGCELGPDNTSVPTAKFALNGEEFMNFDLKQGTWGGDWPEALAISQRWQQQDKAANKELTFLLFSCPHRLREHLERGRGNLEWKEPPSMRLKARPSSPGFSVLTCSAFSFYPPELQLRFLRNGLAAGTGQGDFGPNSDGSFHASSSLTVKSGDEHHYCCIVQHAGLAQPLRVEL
T3 sequence (P16213 21-119 limits assumed, chain 2 of 2): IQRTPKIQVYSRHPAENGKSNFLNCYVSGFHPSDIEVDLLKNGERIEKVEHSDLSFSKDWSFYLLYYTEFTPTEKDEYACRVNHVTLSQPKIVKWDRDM
T2 sequence (P51654 other isoform, or with tags, fused parts or gaps limits assumed): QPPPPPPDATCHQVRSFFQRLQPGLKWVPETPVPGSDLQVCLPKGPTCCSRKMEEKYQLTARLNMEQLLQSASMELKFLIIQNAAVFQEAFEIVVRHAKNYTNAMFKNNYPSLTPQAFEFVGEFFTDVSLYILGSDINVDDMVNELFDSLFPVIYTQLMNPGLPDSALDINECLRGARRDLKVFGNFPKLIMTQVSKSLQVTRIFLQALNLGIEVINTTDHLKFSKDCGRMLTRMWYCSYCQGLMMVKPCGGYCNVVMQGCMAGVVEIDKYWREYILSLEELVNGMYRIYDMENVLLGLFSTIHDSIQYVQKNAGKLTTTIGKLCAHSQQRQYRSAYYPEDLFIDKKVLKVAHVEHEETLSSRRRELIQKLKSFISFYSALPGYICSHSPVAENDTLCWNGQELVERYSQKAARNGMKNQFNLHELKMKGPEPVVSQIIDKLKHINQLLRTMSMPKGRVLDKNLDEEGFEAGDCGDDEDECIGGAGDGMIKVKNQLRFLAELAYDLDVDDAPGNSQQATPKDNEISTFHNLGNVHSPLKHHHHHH
T5 sequence (P08637 17-208 F176V limits assumed): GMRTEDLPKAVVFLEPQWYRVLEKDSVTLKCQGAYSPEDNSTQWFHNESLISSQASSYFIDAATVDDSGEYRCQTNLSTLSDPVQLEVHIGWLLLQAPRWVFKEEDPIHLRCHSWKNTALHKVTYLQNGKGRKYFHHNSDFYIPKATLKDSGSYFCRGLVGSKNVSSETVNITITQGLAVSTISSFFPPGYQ

B1: 6R_a_H1L1 (antibody, human IgG1, kappa, V domains shown)
VH: QVQLQESGPGLVRPSQTLSLTCTVSGYSITSDHAWSWVRQPPGRGLEWIGYISYSGITTYNPSLKSRVTMLRDTSKNQFSLRLSSVTAADTAVYYCARVLARITAMDYWGQGSLVTVSS
VL: DIQMTQSPSSLSASVGDRVTITCRASQDISSYLNWYQQKPGKAPKLLIYYTSRLHSGVPSRFSGSGSGTDFTFTISSLQPEDIATYYCGQGNRLPYTFGQGTKVEIKR
notes: Anti-human IL-6 receptor antibody
In experiment [1], B1 yielded a Kd of 0.067 nM.

B2: 6R_a_H2L2 (antibody, human IgG1, kappa, V domains shown)
VH: QVQLQESGPGLVKPSETLSLTCAVSGYSISDDHAWSWVRQPPGEGLEWIGYISYSGITNYNPSLKGRVTISRDTSKNQFSLKLSSVTAADTAAYYCARVLARITAMDYWGEGTLVTVSS
VL: B1 VL with R18S, R24Q, K45E, T51G, R53E, Q79E, P80A, I83A, K107E
With B2, in experiment [1], the Kd was 0.03 nM.

B3: 6R_a_H3L3 (antibody, human IgG1, kappa, V domains shown)
VH: QVQLQESGPGLVKPSETLSLTCAVSGYSISDDHAWSWVRQPPGEGLEWIGYISYSGITNYNPSLQDRVTISRDNSKNTLYLQMNSLRAEDTAVYYCARLLARATAMDYWGQGILVTVSS
VL: DIQMTQSPSSLSASVGDSVTITCQASEDISSYLNWYQQKPGKAPELLIYYGSELESGVPSRFSGSGSGTDFTFTISSLEAEDAATYYCGQGNRLPYTFGQGTKVEIER
B3: in experiment [1], the affinity, expressed as Kd, was 0.052 nM.

B4: GPC3_H2L2 (antibody, human IgG1, kappa, V domains shown)
VH: QVQLVQSGAEVKKPGASVKVSCKASGYTFTDYEMHWVRQAPGQGLEWMGALDPKTGDTAYSQKFKGRVTLTADKSTSTAYMELSSLTSEDTAVYYCTRFYSYTYWGQGTLVTVSS
VL: DVVMTQSPLSLPVTPGEPASISCRSSQSLVHSNRNTYLHWYLQKPGQSPQLLIYKVSNRFSGVPDRFSGSGSGTDFTLKISRVEAEDVGVYYCSQNTHVPPTFGQGTKLEIKR
B4: in experiment [2], the “IC50 (read off the curve)” value was approximately 0.9 µg/mL.

B5: GPC3_H3L3 (antibody, human IgG1, kappa, V domains shown)
VH: B4 VH with K19T, V37I, A40P, Q43E, M48I, L51I, Q62E, K63S, K65Q, G66D
VL: B4 VL with V2I, R24Q, S25A, Q27E, L109V, K112E
With B5, the “IC50 (read off the curve)” value in experiment [2] was approximately 0.9 µg/mL.

B6: anti-IL-31 receptor antibody H0L0 with IgG1 constant region (antibody)
heavy: not shown
VL: DIQMTQSPSSLSASVGDRVTITCRTSENIYSFLAWYQQKPGKAPKLLIYNAKTLAKGVPSRFSGSGSGTDFTLTISSLQPEDFATYYCQHHYESPLTFGGGTKVEIK
notes: Not the anti-glypican 3 antibody of the same name; also called H0L0 (IgG1)
With B6, in experiment [3], the equilibrium dissociation constant (Kd) was determined as 1070 nM.

B7: anti-IL-31 receptor antibody H0L0 with M58 constant region (antibody)
heavy: QVQLVQSGAEVKKPGASVKVSCKASGYTFTGYIMNWVRQAPGQGLEWMGLINPYNGGTSYNQKFKGRVTITADESTSTAYMELSSLRSEDTAVYYCARDGYDDGPYTMDYWGQGTLVTVSASTKGPSVFPLAPSSKSTSGGTAALGCLVKDYFPEPVTVSWNSGALTSGVHTFPAVLQSSGLYSLSSVVTVPSSNFGTQTYTCNVDHKPSNTKVDKTVERKSCVECPPCPAPPVAGPSVFLFPPKPKDTLMISRTPEVTCVVVDVSQEDPEVQFNWYVDGVEVHNAKTKPREEQFNSTFRVVSVLTVVHQDWLNGKEYKCKVSNKGLPAPIEKTISKTKGQPREPQVYTLPPSQEEMTKNQVSLTCLVKGFYPSDIAVEWESNGQPENNYKTTPPMLDSDGSFFLYSKLTVDKSRWQEGNVFSCSVMHEALHNHYTQKSLSLSP
VL: B6 VL
notes: also called H0L0 (M58)
Molecule B7 gave a Kd in experiment [3] of 910 nM.

B8: WT-M14ΔGK (antibody)
heavy: QVQLQESGPGLVRPSQTLSLTCTVSGYSITSDHAWSWVRQPPGRGLEWIGYISYSGITTYNPSLKSRVTMLRDTSKNQFSLRLSSVTAADTAVYYCARSLARTTAMDYWGQGSLVTVSSASTKGPSVFPLAPSSKSTSGGTAALGCLVKDYFPEPVTVSWNSGALTSGVHTFPAVLQSSGLYSLSSVVTVPSSNFGTQTYTCNVDHKPSNTKVDKTVERKSCVECPPCPAPPVAGPSVFLFPPKPKDTLMISRTPEVTCVVVDVSHEDPEVQFNWYVDGVEVHNAKTKPREEQFNSTFRVVSVLTVVHQDWLNGKEYKCKVSNKGLPSSIEKTISKAKGQPREPQVYTLPPSREEMTKNQVSLTCLVKGFYPSDIAVEWESNGQPENNYKTTPPVLDSDGSFFLYSKLTVDKSRWQQGNVFSCSVMHEALHNHYTQKSLSLSP
light: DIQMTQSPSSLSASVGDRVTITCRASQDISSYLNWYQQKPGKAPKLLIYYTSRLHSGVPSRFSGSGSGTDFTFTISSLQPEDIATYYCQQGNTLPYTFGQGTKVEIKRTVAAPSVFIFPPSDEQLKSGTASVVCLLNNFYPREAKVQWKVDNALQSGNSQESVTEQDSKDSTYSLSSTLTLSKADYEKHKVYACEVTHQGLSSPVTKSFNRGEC
As for B8, the binding result in experiment [4] and in experiment [6] was “binds” in each case. The same molecule had a Kd in experiment [5] of 1850 nM.

B9: WT-M73 (antibody)
heavy: B8 heavy with H266Q, S328A, S329P, A337T, R353Q, V395M, Q417E, N432A
light: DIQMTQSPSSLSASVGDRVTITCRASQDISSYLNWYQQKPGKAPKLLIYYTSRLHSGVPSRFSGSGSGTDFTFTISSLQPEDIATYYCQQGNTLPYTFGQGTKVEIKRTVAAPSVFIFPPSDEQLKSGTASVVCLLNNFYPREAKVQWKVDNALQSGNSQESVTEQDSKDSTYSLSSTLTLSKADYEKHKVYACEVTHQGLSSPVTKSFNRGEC
Turning to B9, the “binding activity relative to WT-IgG1” value in experiment [7] was approximately 3.8 fold. The Kd in experiment [5] came to 420 nM.
